# Patent US20020106676A1 (MYRIAD GENETICS, published 2002)
# T1: PN7740, amino acids 27-321 (prey of Example 34) (Saccharomyces cerevisiae; human, UniProt P04386 768-881)
# T1 construct: also called novel protein PN7740
# T1 sequence: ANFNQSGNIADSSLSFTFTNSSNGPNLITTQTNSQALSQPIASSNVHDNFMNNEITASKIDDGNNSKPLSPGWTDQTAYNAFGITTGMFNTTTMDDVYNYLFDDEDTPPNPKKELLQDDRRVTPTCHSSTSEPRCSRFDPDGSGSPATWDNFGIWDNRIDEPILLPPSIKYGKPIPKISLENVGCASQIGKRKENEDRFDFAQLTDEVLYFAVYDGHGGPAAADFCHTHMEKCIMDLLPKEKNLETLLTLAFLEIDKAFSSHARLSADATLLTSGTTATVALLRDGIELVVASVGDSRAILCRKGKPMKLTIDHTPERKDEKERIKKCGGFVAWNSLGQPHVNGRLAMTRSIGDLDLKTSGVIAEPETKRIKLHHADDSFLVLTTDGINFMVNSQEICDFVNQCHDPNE
# B1: PSD95, amino acids 149-255 (bait of Example 34) (other, UniProt P04386 1-147, looked up)
# chain: MKLLSSIEQACDICRLKKLKCSKEKPKCAKCLKNNWECRYSPKTKRSPLTRAHLTEVESRLERLEQLFLLIFPREDLDMILKMDSLQDIKALLTGLFVQDNVNKDAVTDRLASVETDMPLTLRQHRISATSSSEESSNKGQRQLTVSMRRKPPAEKVMEIKLIKGPKGLGFSIAGGVGNQHIPGDNSIYVTKIIEGGAAHKDGRLQIGDKILAVNSVGLEDVMHEDAVAALKNTYDVVYLKVAKPSNAYLSDSY
# notes: also called DLG4; SAP-90
# Target: T1, PN7740, amino acids 27-321 (prey of …)
# Experiment: yeast two-hybrid search
# Description: The resulting diploid yeast cells expressing proteins interacting with the bait protein were selected for the ability to synthesize tryptophan, leucine, histidine, and adenine. DNA was prepared from each clone, transformed by electroporation into E. coli strain KC8 (Clontech KC8 electrocompetent cells, Catalog No. C2023- 1), and the cells were selected on ampicillin-containing plates in the absence of either tryptophane (selection for the bait plasmid) or leucine (selection for the library plasmid). DNA for both plasmids was prepared and sequenced by the dideoxynucleotide chain termination method. […] Clones that gave a positive signal in the p-galactosidase assay were considered false-positives and discarded. Plasmids for the remaining clones were transformed into yeast cells together with the original bait plasmid. Clones that gave a positive signal in the p-galactosidase assay were considered true positives.
binder,measurement,value
B1,binding result,binds
